Measurements reported in article PMC2928791 (PLoS Pathogens, 2010).

Tests used:
[1] = biological target: CAV20 non-structural protein 2C^ATPase (wt) (coxsackie A virus 20 (CAV20)); assay: co-IP
PV GST-2C^ATPase = biological target: T1, PV GST-2C^ATPase (poliovirus (PV; the paper's PV is type …, UniProt P03300 1128-1456); assay: […] (50 mM Tris-HCl pH 7.5, 140 mM NaCl, 0.1% Triton X-100, […]; conditions: both partners purified
T1 sequence: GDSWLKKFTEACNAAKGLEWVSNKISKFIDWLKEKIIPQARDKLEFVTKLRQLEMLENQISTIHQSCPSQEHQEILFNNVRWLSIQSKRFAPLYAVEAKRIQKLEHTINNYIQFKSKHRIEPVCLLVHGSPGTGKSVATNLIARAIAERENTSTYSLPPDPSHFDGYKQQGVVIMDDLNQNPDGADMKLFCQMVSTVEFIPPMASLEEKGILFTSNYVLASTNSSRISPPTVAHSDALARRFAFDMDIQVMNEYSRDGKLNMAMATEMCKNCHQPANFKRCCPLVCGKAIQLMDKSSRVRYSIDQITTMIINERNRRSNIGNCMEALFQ

CAV20 structural protein VP3 (wt) (natural protein)
percent of the level in the CAV20 2C^ATPase and CAV20 VP3 Co-IP reaction [1]: 100%

B1: PV His-tagged VP3 (natural protein)
chain: GLPVMNTPGSNQYLTADNFQSPCALPEFDVTPPIDIPGEVKNMMELAEIDTMIPFDLSATKKNTMEMYRVRLSDKPHTDDPILCLSLSPASDPRLSHTMLGEILNYYTHWAGSLKFTFLFCGFMMATGKLLVSYAPPGADPPKKRKEAMLGTHVIWDIGLQSSCTMVVPWISNTTYRQTIDDSFTEGGYISVFYQTRIVVPLSTPREMDILGFVSACNDFSVRLLRDTTHIEQKALAQ
binding result (PV GST-2C^ATPase): binds
